# B1: GFP‐tagged wild‐type RAGE (AAV‐RAGE‐Wt) [mouse] / receptor‐interacting serine/threonine protein kinase 1 (RIPK1), endogenous [mouse (endogenous in BV2 cells and in mouse hippocampus)] (parent complex)
# chain 1: GQNITARIGEPLVLSCKGAPKKPPQQLEWKLNTGRTEAWKVLSPQGGPWDSVARILPNGSLLLPATGIVDEGTFRCRATNRRGKEVKSNYRVRVYQIPGKPEIVDPASELTASVPNKVGTCVSEGSYPAGTLSWHLDGKLLIPDGKETLVKEETRRHPETGLFTLRSELTVIPTQGGTHPTFSCSFSLGLPRRRPLNTAPIQLRVREPGPPEGIQLLVEPEGGIVAPGGTVTLTCAISAQPPPQVHWIKDGAPLPLAPSPVLLLPEVGHEDEGTYSCVATHPSHGPQESPPVSIRVTETGDEGPAEGSVGESGLGTLALALGILGGLGVVALLVGAILWRKRQPRREERKAPESQEDEEERAELNQSEEAEMPENGAGGP
# chain 2: MQPDMSLDNIKMASSDLLEKTDLDSGGFGKVSLCYHRSHGFVILKKVYTGPNRAEYNEVLLEEGKMMHRLRHSRVVKLLGIIIEEGNYSLVMEYMEKGNLMHVLKTQIDVPLSLKGRIIVEAIEGMCYLHDKGVIHKDLKPENILVDRDFHIKIADLGVASFKTWSKLTKEKDNKQKEVSSTTKKNNGGTLYYMAPEHLNDINAKPTEKSDVYSFGIVLWAIFAKKEPYENVICTEQFVICIKSGNRPNVEEILEYCPREIISLMERCWQAIPEDRPTFLGIEEEFRPFYLSHFEEYVEEDVASLKKEYPDQSPVLQRMFSLQHDCVPLPPSRSNSEQPGSLHSSQGLQMGPVEESWFSSSPEYPQDENDRSVQAKLQEEASYHAFGIFAEKQTKPQPRQNEAYNREEERKRRVSHDPFAQQRARENIKSAGARGHSDPSTTSRGIAVQQLSWPATQTVWNNGLYNQHGFGTTGTGVWYPPNLSQMYSTYKTPVPETNIPGSTPTMPYFSGPVADDLIKYTIFNSSGIQIGNHNYMDVGLNSQPPNNTCKEESTSRHQAIFDNTTSLTDEHLNPIRENLGRQWKNCARKLGFTESQIDEIDHDYERDGLKEKVYQMLQKWLMREGTKGATVGKLAQALHQCCRIDLLNHLIRASQS
# Variants of: B1
# Assay: co-immunoprecipitation (IP: RIPK1, IB: RAGE), optical density of blot; hippocampus of db/db + RAGE-KD mice injected with AAV-RAGE-Wt or AAV-RAGE-Mut; n = 4; mean ± S.D; parent: 1.9; read off a plot
row,Variant,response
1,"chain 1 R340A, chain 1 K341A, chain 1 R342A, chain 1 Q343A, chain 1 P344A, chain 1 R345A",~1 fold change to the db/db + RAGE-KD group

# Variants of: B1
# Assay: co-immunoprecipitation (IP: RAGE, IB: RIPK1), optical density of blot; hippocampus of db/db + RAGE-KD mice injected with AAV-RAGE-Wt or AAV-RAGE-Mut; n = 4; mean ± S.D; parent: 2.7; read off a plot
row,Variant,response
1,"chain 1 R340A, chain 1 K341A, chain 1 R342A, chain 1 Q343A, chain 1 P344A, chain 1 R345A",~0.95 fold change to the db/db + RAGE-KD group
